Experimental data: patent US12467929

How the values were obtained:
[1] = biological target: recombinant UBE3A protein (Homo sapiens (Human)) (UniProt Q05086); assay: 3-step Simoa; capture GTX; UBE3A 7.81 ng/ml
[2] = biological target: recombinant UBE3A protein (Homo sapiens (Human)) (UniProt Q05086); assay: Simoa head-to-head, Table 11; capture GTX; UBE3A 0.80 ng/ml
[3] = biological target: recombinant UBE3A protein (Homo sapiens (Human)) (UniProt Q05086); assay: Simoa head-to-head, Table 10; capture MS 2F6; UBE3A 0.80 ng/ml
[4] = biological target: recombinant UBE3A protein (Homo sapiens (Human)) (UniProt Q05086); assay: Simoa head-to-head, Table 11; capture MS 2F6; UBE3A 0.16 ng/ml
[5] = biological target: recombinant UBE3A protein (Homo sapiens (Human)) (UniProt Q05086); assay: Simoa; capture GTX; 3E5 0.2 ug/ml; UBE3A 0.160 ng/ml
[6] = biological target: recombinant UBE3A protein (Homo sapiens (Human)) (UniProt Q05086); assay: 3-step Simoa, 120 min bead step; capture GTX; UBE3A 4.00 ng/ml
[7] = biological target: recombinant UBE3A protein (Homo sapiens (Human)) (UniProt Q05086); assay: Simoa; capture GTX, no helper beads; 3E5 0.4 ug/ml; UBE3A 0.00128 ng/ml
[8] = biological target: recombinant UBE3A protein (Homo sapiens (Human)) (UniProt Q05086); assay: Simoa; capture GTX, no helper beads; 3E5 0.4 ug/ml; UBE3A 20.0 ng/ml

Chain of UniProt Q05086 (Q05086 whole entry): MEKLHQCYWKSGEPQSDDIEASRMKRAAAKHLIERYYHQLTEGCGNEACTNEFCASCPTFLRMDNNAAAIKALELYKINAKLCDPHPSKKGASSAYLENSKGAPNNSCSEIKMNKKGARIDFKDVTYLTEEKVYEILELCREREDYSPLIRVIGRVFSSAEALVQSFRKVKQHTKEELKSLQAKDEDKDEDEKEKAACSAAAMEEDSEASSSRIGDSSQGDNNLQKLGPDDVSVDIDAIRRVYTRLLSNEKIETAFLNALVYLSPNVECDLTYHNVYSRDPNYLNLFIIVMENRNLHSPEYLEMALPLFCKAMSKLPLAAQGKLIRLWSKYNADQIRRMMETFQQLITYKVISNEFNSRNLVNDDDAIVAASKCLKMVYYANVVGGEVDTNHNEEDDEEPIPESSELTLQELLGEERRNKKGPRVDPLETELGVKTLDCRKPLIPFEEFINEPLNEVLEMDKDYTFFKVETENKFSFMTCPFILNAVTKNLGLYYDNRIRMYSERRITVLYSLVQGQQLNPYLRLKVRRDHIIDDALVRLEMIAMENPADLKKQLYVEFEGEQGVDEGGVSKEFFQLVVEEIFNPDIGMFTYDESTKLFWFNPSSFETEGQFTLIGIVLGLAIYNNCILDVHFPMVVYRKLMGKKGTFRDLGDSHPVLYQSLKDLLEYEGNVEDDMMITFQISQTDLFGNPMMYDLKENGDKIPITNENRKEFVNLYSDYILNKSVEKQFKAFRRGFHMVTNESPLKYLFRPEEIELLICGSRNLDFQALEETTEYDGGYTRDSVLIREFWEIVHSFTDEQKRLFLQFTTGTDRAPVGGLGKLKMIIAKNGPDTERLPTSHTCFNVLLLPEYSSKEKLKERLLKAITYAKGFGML

Substance: NB500-240 (Novus) (antibody)
- AEB1 [1]: 0.0143
- AEB2 [1]: 0.0128
- Ave AEB [1]: 0.0135
- Signal to Background [1]: 6.2

Substance: anti-UBE3A antibody 3E5 (SAB1404508-100 ug, Millipore-Sigma)
- AEB1 [2]: 0.0916
- AEB2 [2]: 0.0961
- Ave AEB [2]: 0.0939
- Signal to Background [2]: 11.5
- AEB1 [3]: 0.0353
- AEB2 [3]: 0.037
- Ave AEB [3]: 0.0361
- Signal to Background [3]: 2.67
- AEB1 [4]: 0.0071
- AEB2 [4]: 0.0078
- Ave AEB [4]: 0.0074
- Signal to Background [4]: 1.96
- AEB1 [5]: 0.125
- AEB2 [5]: 0.123
- AEB3 [5]: 0.121
- Average AEB [5]: 0.123
- Signal to Background [5]: 3.14
- AEB1 [6]: 0.533
- AEB2 [6]: 0.55
- Ave AEB [6]: 0.542
- Signal to Background [6]: 318
- AEB1 [7]: 0.0195
- AEB2 [7]: 0.0213
- Average AEB [7]: 0.0204
- Signal to Background [7]: 1.04
- AEB1 [8]: 6.8
- AEB2 [8]: 6.32
- Average AEB [8]: 6.56
- Signal to Background [8]: 336
